In publication PMC8934652:

What was measured:
CELF1 RRM1/2 [1] = target: T1, CELF1 RRM1/2 (UniProt Q92879 1-187); test: FP competition
CELF1 RRM1/2 [2] = target: T1, CELF1 RRM1/2; test: FP
CELF1 RRM1/2 S147A = CELF1 RRM1/2 S147A (UniProt Q92879 1-187, S147A); test: FP
Chain of CELF1 RRM1/2 S147A (Q92879 1-187 S147A): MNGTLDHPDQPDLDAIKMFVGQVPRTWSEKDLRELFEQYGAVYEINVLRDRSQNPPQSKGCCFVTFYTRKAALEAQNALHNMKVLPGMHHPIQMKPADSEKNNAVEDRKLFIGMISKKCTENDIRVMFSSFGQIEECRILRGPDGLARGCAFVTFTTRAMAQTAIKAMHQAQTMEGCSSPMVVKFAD

T1 sequence (Q92879 1-187): as the sequence (Q92879 1-187 S147A) above, with A147S counted along it

Binder	binding result (CELF1 RRM1/2 [1])	binding result (CELF1 RRM1/2 [2])	binding result (CELF1 RRM1/2 S147A)
UUGUUGUU (ssRNA) [GU cold probe]	binds		
UUGUUGUU (ssRNA) [GU probe]		binds	binds
